Literature values as cited in publication PMC10643566, “Insights into the mechanism of SARS-CoV-2 main protease autocatalytic maturation from model precursors” (Communications Biology, 2023).

Molecular target: MPro (SARS-CoV-2) (UniProt P0DTD1)
Settings: cited from earlier work

Q: For MPro (from UniProt P0DTD1), which Kd is on record?
A: 1.3 µM
